# T1: DL3W33, Recombinant Human DLL1 ECD (Ser22-Gly540), -DI-C-6xHis (human, UniProt O00548 22-540)
# T1 construct: also called huDLL1; TPP000049465
# T1 sequence: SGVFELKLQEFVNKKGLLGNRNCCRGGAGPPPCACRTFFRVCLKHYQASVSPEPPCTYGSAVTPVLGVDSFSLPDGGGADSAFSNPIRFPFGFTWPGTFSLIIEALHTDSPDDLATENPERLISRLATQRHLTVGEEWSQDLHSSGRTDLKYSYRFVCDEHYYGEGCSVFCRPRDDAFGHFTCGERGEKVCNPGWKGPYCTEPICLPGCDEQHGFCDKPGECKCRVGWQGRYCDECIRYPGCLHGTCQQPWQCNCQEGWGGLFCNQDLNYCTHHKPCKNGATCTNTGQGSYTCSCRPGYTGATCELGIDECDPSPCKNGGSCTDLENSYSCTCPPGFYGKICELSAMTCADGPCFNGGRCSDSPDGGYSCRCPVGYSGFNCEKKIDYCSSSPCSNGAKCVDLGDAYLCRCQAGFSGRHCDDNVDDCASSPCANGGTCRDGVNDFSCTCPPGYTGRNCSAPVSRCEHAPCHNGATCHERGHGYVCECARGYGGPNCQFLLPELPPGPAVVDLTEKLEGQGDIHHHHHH
# T2: DL3W35, extracellular domain of human DLL3 linked to a C-terminal 6xHis-Tag and a linker (human, UniProt Q9NYJ7 27-479)
# T2 construct: also called human DLL3 ECD; huDLL3
# T2 sequence: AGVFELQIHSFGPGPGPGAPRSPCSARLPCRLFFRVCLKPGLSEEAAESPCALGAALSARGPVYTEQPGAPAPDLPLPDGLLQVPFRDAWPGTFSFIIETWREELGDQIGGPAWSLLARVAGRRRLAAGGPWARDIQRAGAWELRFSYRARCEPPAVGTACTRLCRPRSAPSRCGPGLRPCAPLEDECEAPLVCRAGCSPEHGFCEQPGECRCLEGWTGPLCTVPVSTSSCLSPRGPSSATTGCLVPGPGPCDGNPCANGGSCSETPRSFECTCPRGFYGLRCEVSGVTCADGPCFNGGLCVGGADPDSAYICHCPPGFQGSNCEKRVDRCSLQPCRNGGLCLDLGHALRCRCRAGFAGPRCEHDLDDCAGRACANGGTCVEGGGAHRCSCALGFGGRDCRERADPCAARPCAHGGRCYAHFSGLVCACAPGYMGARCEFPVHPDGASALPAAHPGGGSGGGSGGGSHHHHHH
# T3: recombinant human DLL3 (Example 9, construct not named) (human, UniProt Q9NYJ7 27-492, limits assumed)
# T3 construct: also called DLL3 antigen
# T3 sequence: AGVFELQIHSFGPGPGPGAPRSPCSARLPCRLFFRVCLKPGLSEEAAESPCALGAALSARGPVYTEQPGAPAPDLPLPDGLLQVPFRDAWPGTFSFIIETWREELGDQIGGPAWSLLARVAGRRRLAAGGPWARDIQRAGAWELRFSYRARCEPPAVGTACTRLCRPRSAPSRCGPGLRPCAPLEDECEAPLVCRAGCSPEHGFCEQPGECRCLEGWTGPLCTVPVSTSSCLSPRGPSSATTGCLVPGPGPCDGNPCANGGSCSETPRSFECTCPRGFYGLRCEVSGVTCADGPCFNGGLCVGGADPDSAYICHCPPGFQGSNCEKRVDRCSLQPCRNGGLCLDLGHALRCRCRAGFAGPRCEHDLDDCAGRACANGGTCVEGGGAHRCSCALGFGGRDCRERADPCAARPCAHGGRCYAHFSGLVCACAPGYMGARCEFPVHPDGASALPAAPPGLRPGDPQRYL
# T4: human DLL3 on DLL3+ tumor cells (human, UniProt Q9NYJ7 27-618)
# T4 sequence: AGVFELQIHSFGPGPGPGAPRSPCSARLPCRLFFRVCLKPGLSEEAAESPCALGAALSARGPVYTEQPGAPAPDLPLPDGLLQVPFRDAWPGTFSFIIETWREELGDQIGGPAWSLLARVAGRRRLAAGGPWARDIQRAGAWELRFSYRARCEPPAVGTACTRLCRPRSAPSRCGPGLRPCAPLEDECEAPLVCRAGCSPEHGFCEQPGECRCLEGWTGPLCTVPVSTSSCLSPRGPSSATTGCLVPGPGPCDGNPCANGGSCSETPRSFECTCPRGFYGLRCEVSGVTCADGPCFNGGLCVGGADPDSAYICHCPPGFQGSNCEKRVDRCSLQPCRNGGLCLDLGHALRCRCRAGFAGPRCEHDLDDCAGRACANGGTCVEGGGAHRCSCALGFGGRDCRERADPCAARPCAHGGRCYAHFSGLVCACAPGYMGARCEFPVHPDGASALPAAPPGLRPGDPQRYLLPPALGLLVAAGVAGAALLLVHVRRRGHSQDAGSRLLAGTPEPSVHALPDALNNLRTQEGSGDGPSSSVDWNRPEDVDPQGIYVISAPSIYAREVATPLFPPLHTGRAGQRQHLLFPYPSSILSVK
# B1: DL3B570 (Fc fusion)
# scFv: EIVLTQSPGTLSLSPGERATLSCRASQSVSRSYLAWYQQKPGQAPRFLIYGASSRATGIPDRFSGSGSGTDFTLTISRLEPEDFAVYYCQQYGTSPITFGQGTRLEIKGGSEGKSSGSGSESKSTGGSQVQLQESGPGLVKPSETLSLSCTVSGDSIRSYYWSWIRQPPGKGLEWIGYIYYSGTTNYKSSLKSRVTISLDTSKKQFSLNLDSVTAADTAVYYCARIGPAGFYFDYWGQGTLVTVSS
# notes: also called DL3B332 scFv-Fc; not shown: wild-type IgG1 Fc domain
# B2: DL3B572 (Fc fusion)
# scFv: EVQLVQSGAEVKKPGASVKVSCKASGYTFTTYYIHWVRQAPGQGLEWMGIIDPSGGRTSYAQKFLGRVTMTRDTSTSTVYMELRSLRSEDTAVYYCARGGDGTWYYGMDVWGQGTTVTVSSGGSEGKSSGSGSESKSTGGSDIVMTQSPSFLSASVGDRVTITCRASQGISNYLAWYQQKPGKAPKLLIYAASTLQSGVPSRFSGSGSGTEFTLTISSLQPEDFATYYCQQLNSYPLTFGGGTKVEIK
# notes: also called DL3B409 scFv-Fc; not shown: wild-type IgG1 Fc domain
# B3: DL3B569 (Fc fusion)
# scFv: DIQMTQSPSSLSASVGDRVTITCRASQGISNYLAWFQQKPGKAPKSLIYAASSLQSGVPSKFSGSGSGTDFTLTISSLQPEDFATYYCQQYNSYPYTFAQGTKLEIKGGSEGKSSGSGSESKSTGGSQVQLVQSGAEVKKPGASVKVSCKASGNTFTNYYIHWVRQAPGQGLEWMGIINPSGGSTSYAQKLQGRMTMTRDTSTSTVYMELSSLRSEDTAVYFCARQGPFIGDAFDIWGQGTMVTVSS
# notes: The conflict is not resolved; also called DL3B279 scFv-Fc; not shown: wild-type IgG1 Fc domain
# B4: DL3B582 (bispecific antibody)
# heavy: QVQLVQSGAEVKKPGASVKVSCKASGNTFTNYYIHWVRQAPGQGLEWMGIINPSGGSTSYAQKLQGRMTMTRDTSTSTVYMELSSLRSEDTAVYFCARQGPFIGDAFDIWGQGTMVTVSSASTKGPSVFPLAPSSKSTSGGTAALGCLVKDYFPEPVTVSWNSGALTSGVHTFPAVLQSSGLYSLSSVVTVPSSSLGTQTYICNVNHKPSNTKVDKKVEPKSCDKTHTCPPCPAPEAAGGPSVFLFPPKPKDTLMISRTPEVTCVVVSVSHEDPEVKFNWYVDGVEVHNAKTKPREEQYNSTYRVVSVLTVLHQDWLNGKEYKCKVSNKALPAPIEKTISKAKGQPREPQVYVLPPSREEMTKNQVSLLCLVKGFYPSDIAVEWESNGQPENNYLTWPPVLDSDGSFFLYSKLTVDKSRWQQGNVFSCSVMHEALHNHYTQKSLSLSPG
# light: DIQMTQSPSSLSASVGDRVTITCRASQGISNYLAWFQQKPGKAPKSLIYAASSLQSGVPSKFSGSGSGTDFTLTISSLQPEDFATYYCQQYNSYPYTFAQGTKLEIKRTVAAPSVFIFPPSDEQLKSGTASVVCLLNNFYPREAKVQWKVDNALQSGNSQESVTEQDSKDSTYSLSSTLTLSKADYEKHKVYACEVTHQGLSSPVTKSFNRGEC
# scFv: DIQMTQSPSSLSASVGDRVTITCRARQSIGTAIHWYQQKPGKAPKLLIKYASESISGVPSRFSGSGSGTDFTLTISSLQPEDFATYYCQQSGSWPYTFGQGTKLEIKGGSEGKSSGSGSESKSTGGSEVQLVESGGGLVKPGGSLRLSCAASGFTFSRYNMNWVRQAPGKGLEWVSSISTSSNYIYYADSVKGRFTFSRDNAKNSLDLQMSGLRAEDTAIYYCTRGWGPFDYWGQGTLVTVSSEPKSSDKTHTCPPCPAPEAAGGPSVFLFPPKPKDTLMISRTPEVTCVVVSVSHEDPEVKFNWYVDGVEVHNAKTKPREEQYNSTYRVVSVLTVLHQDWLNGKEYKCKVSNKALPAPIEKTISKAKGQPREPQVYVYPPSREEMTKNQVSLTCLVKGFYPSDIAVEWESNGQPENNYKTTPPVLDSDGSFALVSKLTVDKSRWQQGNVFSCSVMHEALHNHYTQKSLSLSPG
# notes: DLL3 arm: DL3B279-Fab-Fc; CD3 arm: CD3W245-LH-scFv-Fc; IgG1 with L234A/L235A/D265S and heterodimerization mutations; also called CD3W245-LH-scFv; DL3B279-Fab
# B5: DL3B583 (bispecific antibody)
# heavy: B4 heavy
# light: B4 light
# scFv: EVQLVESGGGLVKPGGSLRLSCAASGFTFSRYNMNWVRQAPGKGLEWVSSISTSSNYIYYADSVKGRFTFSRDNAKNSLDLQMSGLRAEDTAIYYCTRGWGPFDYWGQGTLVTVSSGGSEGKSSGSGSESKSTGGSDIQMTQSPSSLSASVGDRVTITCRARQSIGTAIHWYQQKPGKAPKLLIKYASESISGVPSRFSGSGSGTDFTLTISSLQPEDFATYYCQQSGSWPYTFGQGTKLEIKEPKSSDKTHTCPPCPAPEAAGGPSVFLFPPKPKDTLMISRTPEVTCVVVSVSHEDPEVKFNWYVDGVEVHNAKTKPREEQYNSTYRVVSVLTVLHQDWLNGKEYKCKVSNKALPAPIEKTISKAKGQPREPQVYVYPPSREEMTKNQVSLTCLVKGFYPSDIAVEWESNGQPENNYKTTPPVLDSDGSFALVSKLTVDKSRWQQGNVFSCSVMHEALHNHYTQKSLSLSPG
# notes: DLL3 arm: DL3B279-Fab-Fc; CD3 arm: CD3W245-HL-scFv-Fc; IgG1 with L234A/L235A/D265S and heterodimerization mutations; also called CD3W245-HL-scFv; DL3B279-Fab
# B6: DL3B571 (Fc fusion)
# scFv: EIVLTQSPGTLSLSPGERATLSCRASQSASSYLAWYQQKPGQAPRLLIYGASSRATGIPDRFSGSGSGTDFTLTISRLEPEDFAVYYCQQYNSSPYTFGQGTKLEIKGGSEGKSSGSGSESKSTGGSQVQLVQSGAEVKKPGASVKVSCKASGHIFISYYIHWVRQAPGQGLEWMGIIDPSGGSKSYAQKFQGRVTMTRDTSTSTVYMELSSLRSEDTAVYYCARQGMIVGTTGDAFDIWGQGTMVTVSS
# notes: also called DL3B358 scFv-Fc; not shown: wild-type IgG1 Fc domain
# Columns and labels:
# [1] = target: T5, DL3W37, human DLL3 EGF6 domain, HSA Fusion and C-term 6His tag (human); assay: MSD plate binding assay on coated DLL3 domain-HSA fusions
# T5 construct: Fusion with the C34S variant of human serum albumin at the C-terminus of the DLL3 subdomain, plus 6xHis
# T5 sequence (chain, as listed by the source limits assumed): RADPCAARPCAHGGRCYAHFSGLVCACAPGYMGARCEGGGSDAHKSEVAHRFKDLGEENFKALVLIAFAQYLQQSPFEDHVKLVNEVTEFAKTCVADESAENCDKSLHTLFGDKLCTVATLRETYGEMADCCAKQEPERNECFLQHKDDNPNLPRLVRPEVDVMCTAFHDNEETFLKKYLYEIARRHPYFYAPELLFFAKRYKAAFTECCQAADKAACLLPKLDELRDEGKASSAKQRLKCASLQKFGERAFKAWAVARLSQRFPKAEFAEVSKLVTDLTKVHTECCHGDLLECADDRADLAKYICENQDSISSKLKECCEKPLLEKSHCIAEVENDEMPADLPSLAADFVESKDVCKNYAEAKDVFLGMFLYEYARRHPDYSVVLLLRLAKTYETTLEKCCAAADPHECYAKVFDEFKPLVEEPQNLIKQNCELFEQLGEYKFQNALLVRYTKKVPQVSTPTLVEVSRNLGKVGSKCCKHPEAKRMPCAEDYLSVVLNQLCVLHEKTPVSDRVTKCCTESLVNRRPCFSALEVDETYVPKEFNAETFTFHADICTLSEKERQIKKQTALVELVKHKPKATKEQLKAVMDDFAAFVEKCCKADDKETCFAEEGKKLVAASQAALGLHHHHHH
# Method: The plates were washed with PBS with 0.1% Tween and then blocked with Starting block solution for 30 minutes. […] Antigen bound antibody was detected with sulfo-tagged anti-human antibody (Meso Scale Discovery, R32AJ) for 60 minutes at ambient temperature followed by another PBS wash. Signal acquisition was done in the presence of 1× MSD read buffer T (MSD, Cat #R92TC-1) on the MSD Sector 600 imager with appropriate plate settings. Data was analyzed for the highest binding signal per domain indicating the preferential domain binding.
# [2] = target: T1, DL3W33, Recombinant Human DLL1 ECD …; assay: SPR (ProteOn), antibody captured by anti-Fc; DLL1 at 100 nM and 1000 nM
# Method: (§1) The association and dissociation were monitored for 5 and 30 minutes, respectively, using a flow rate of 50 μL/min. Kinetic information (on-rate and off-rate constants) were extracted by fitting sensorgrams to the 1:1 Langmuir binding model. Binding affinity (KD) are reported as the ratio of rate constants (koff/kon).
# [3] = target: T6, DL3W34, human DLL4 ECD (Ser27-Pro524), C-10xHis (human, UniProt Q9NR61 27-524); assay: SPR (ProteOn), antibody captured by anti-Fc; DLL4 at 100 nM and 1000 nM
# T6 construct: also called huDLL4; TPP0000494661
# T6 sequence (Q9NR61 other isoform, or with tags, fused parts or gaps limits assumed): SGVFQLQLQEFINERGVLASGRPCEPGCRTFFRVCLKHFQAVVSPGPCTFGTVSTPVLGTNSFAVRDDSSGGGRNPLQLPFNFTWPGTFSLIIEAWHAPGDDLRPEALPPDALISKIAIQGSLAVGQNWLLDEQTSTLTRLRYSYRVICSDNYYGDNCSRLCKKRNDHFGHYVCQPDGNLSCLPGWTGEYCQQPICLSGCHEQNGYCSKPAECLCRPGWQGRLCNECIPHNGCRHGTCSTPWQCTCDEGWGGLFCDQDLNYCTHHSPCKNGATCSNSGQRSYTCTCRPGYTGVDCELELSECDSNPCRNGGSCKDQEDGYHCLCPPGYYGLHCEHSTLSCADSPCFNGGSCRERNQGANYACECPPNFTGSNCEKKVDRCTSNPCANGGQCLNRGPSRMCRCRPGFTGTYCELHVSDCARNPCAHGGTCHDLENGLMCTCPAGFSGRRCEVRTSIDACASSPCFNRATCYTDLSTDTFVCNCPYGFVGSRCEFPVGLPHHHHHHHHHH
# Method: as §1
# [4] = target: T2, DL3W35, extracellular domain of human …; assay: SPR (ProteOn), antibody captured by anti-Fc, DLL3 (DL3W35) titrated
# Method: as §1
# [5] = target: T3, recombinant human DLL3 (Example 9, …); assay: SPR (Biacore T200), antibody captured by goat anti-Fc on a C1 chip, DLL3 titrated
# Method: The binding affinity of anti-DLL3×CD3 antibodies to the recombinant human DLL3 was determined by surface plasmon resonance (SPR) using a Biacore T200 instrument. […] The association was monitored for 2 minutes and the and dissociation for 5 or 60 minutes, using a flow rate of 100 μL/min. Raw binding data was referenced by subtracting the analyte binding signals from blanks and analyzed using a 1:1 Langmuir binding model using the Biacore Insight evaluation software to obtain the kinetics which were used to calculate the binding affinity.
# [6] = target: T4, human DLL3 on DLL3+ tumor cells; assay: cell-based or functional assay
Binder,binding result [1],binding result [2],binding result [3],Kd [4] [nM],Kd [5] [nM],"Cytotoxicity (% Lysis), G361, whole PBMCs, 1:1 ET ratio, 30 nM [6] [%]","Cytotoxicity (% Lysis), HCC1833, whole PBMCs, 1:1 ET ratio, 30 nM [6] [%]","Cytotoxicity (% Lysis), SHP-77, whole PBMCs, 1:1 ET ratio, 30 nM [6] [%]"
B1,binds,no binding (tested: 1000 nM),no binding (tested: 1000 nM),0.0668,,,,
B2,,no binding (tested: 1000 nM),no binding (tested: 1000 nM),2.32,,,,
B3,binds,no binding (tested: 1000 nM),no binding (tested: 1000 nM),0.147,,,,
B4,,,,,0.016,98.9,93.7,87.3
B5,,,,,0.016,98.9,88.4,99.8
B6,binds,no binding (tested: 1000 nM),no binding (tested: 1000 nM),0.0734,,,,
